These results are taken from doi:10.1101/2020.05.28.121053.

Read-outs that look alike come from different tables or passages of the source. Ends that are not written are not given here. Some results are limits rather than exact numbers.

Assay in all cases: fluorescence polarisation
Background: Fluorescence polarisation rises when a labelled molecule tumbles more slowly, as on binding a larger partner.

Test [1] deals with mbGIPC PDZ domain (Monosiga brevicollis GIPC homologue, original construct) (Monosiga brevicollis).
Test [2] shares this target. The source holds these as a separate data set.
The target in test [3] is mbSHANK1 PDZ domain (Monosiga brevicollis SHANK1 homologue) (Monosiga brevicollis).

Broadly, the Ki is a measure of affinity in units of concentration, obtained from inhibition or displacement. A lower Ki goes with higher affinity. GAIP C-terminal peptide: the Ki in test [1] is 0.14 µM.
The molecule “tyrosinase-related protein 1 (TYRP1) C-terminal peptide” came in with a fold worse affinity than GAIP in test [1] of 10 fold.
Still for that read-out and setting: the result for “β-1 adrenergic receptor (B1AR) C-terminal peptide” reads 20 fold.
On to VEPKKSFDEI [decameric peptide matching the final 10 residues of the mbGIPC_(SFDEI) construct], for which the Ki in test [2] is above 1000 µM.
In test [3], NDPAWDETNL (also: fluorescent label, kind and position not given here) [fluorescent β-PIX peptide] displayed a fold higher affinity than the GIRK3 peptide of 62 fold.
